Patent publication US11857648B2, “Dimerization strategies and compounds for molecular imaging and/or radioimmunotherapy” (UNIVERSITY OF PITTSBURGH—OF THE COMMONWEALTH SYSTEM OF …, priority 2016, dated 2024)

Columns and labels:
[1] = system: luciferase-transfected KPCP cancer cells; experiment: PET/CT imaging, orthotopic xenograft mouse model; format: in vivo, Balb/c mice; details: 1 hour post injection
Procedure: (§1) In vivo PET/CT imaging was conducted in Balb/c mice. One week after the orthotropic implantation of 1×10^6 luciferase-transfected KPCP cancer cells into the pancreas of Balb/c mice, the mice were used for PET imaging. Either the CNGRC-(^68Ga)NOTA-RGDyK heterodimer (“CNGRC” disclosed as SEQ ID NO: 1), (^68Ga)NOTA(CNGRC) (“CNGRC” disclosed as SEQ ID NO: 1), or (^68Ga)NOTA(RGDyK)] were injected into the bloodstream via tail vein injection. Blocking studies were conducted for the heterodimer studies by co-injecting 100× of CNGRC (SEQ ID NO: 1) and RGDyK. Small animal PET/CT was performed at 1 hour post injection of tracers (FIGS. 15A-15C).

[2] = PET/CT imaging, orthotopic xenograft mouse model; format: in vivo, Balb/c mice; details: Balb/c, mouse, iv, total radioactivity, 1 hour post injection
Procedure: as §1

[3] = system: bxpc3 and 4T1 tumor xenografts; experiment: PET/CT imaging, subcutaneous xenograft mouse model; format: in vivo, NCr nude mice; details: 1 hour post injection
Procedure: In vivo PET/CT imaging was conducted in NCr nude mice bearing bxpc3 (human pancreatic adenocarcinoma cell line) and 4T1 (a murine breast cancer cell line that overexpresses integrin αvβ3 and CD13) tumor xenografts.
Mice were injected with bxpc3 cells (1 million cells in 150 μL PBS) into the subcutaneous flank of the right shoulder and 4T1 cells (1 million cells in 150 μL PBS) into the subcutaneous flank of the left shoulder.

[4] = system: KCH (Pdx1-Cre;K-RasG12D/+; HMGB1−/−) mouse model; experiment: PET/CT imaging, spontaneous transgenic mouse model
Procedure: (§2) In vivo PET/CT imaging was conducted in the genetically engineered KCH (Pdx1-Cre;K-RasG12D/+; HMGB1−/−) mouse model. High mobility group box 1 (HMGB1) is a critical regulator of autophagy, a major pathway for degradation of effete proteins and damaged organelles, and the conditional genetic ablation of HMGB1 limited to the pancreas inhibits autophagy, promotes proliferation, activates normally quiescent pathways, and renders mice extraordinarily sensitive to K-RasG12D/+-driven pancreatic carcinogenesis. The progression of PanINs from low grade PanINI to high grade PanIN3 could be observed as early as seven days (normally three-nine months) after birth in KCH (Pdx1-Cre;K-RasG12D/+;HMGB1−/−). PET imaging normally was performed˜6 weeks old KCH mice.
(§3) Either the CNGRC-(^68Ga)NOTA-RGDyK (“CNGRC” disclosed as SEQ ID NO: 1) heterodimer, (^68Ga)NOTA(CNGRC) (“CNGRC” disclosed as SEQ ID NO: 1), or (^68Ga)NOTA(RGDyK)] were injected into the bloodstream via tail vein injection. Blocking studies were conducted for the heterodimer studies by co-injecting 100× of CNGRC (SEQ ID NO: 1) and RGDyK. Small animal PET/CT was performed at 1 hour post injection of tracers (FIGS. 16A-16D).

[5] = PET/CT imaging, spontaneous transgenic mouse model; details: KCH (Pdx1-Cre;K-RasG12D/+; HMGB1−/−), mouse, in vivo, iv, total radioactivity, 1 hour post injection
Procedure: as §2, §3

N=C(N)NCCC[C@@H]1NC(=O)CNC(=O)[C@H](CC(N)=O)NC(=O)[C@@H](NC(=O)CCOCCOCCOCCOCCNC(=O)C(CCn2nnc3c2CCC2C(CC3)C2COC(=O)NCCOCCOCCOCCOCCC(=O)NCCCC[C@@H]2NC(=O)[C@@H](Cc3ccc(O)cc3)NC(=O)[C@H](CC(=O)O)NC(=O)CNC(=O)[C@H](CCCNC(=N)N)NC2=O)N2CCN(CC(=O)O)CCN(CC(=O)O)CC2)CSSC[C@@H](C(N)=O)NC1=O (some centres unmarked) [CNGRC-(^68Ga)NOTA-RGDyK, metal not drawn]
in vivo performance [1]: longer blood retention, better tumor/non-tumor ratios
uptake in orthotopic tumor [1]: 1.4 % ID/g
tissue uptake at 1 h ([2]; blood, read-out: uptake in blood): 0.1 %ID/g
tissue uptake at 1 h ([2]; kidney, read-out: uptake in kidney): 2.2 %ID/g
tissue uptake at 1 h ([2]; liver, read-out: uptake in liver): 1.8 %ID/g
tissue uptake at 1 h ([2]; muscle, read-out: uptake in muscle): 0.1 %ID/g
tissue uptake at 1 h ([2]; pancreas, read-out: uptake in pancrease): 0.36 %ID/g
tissue uptake at 1 h ([2]; spleen, read-out: uptake in spleen): 1.1 %ID/g
in vivo performance [3]: longer blood retention, better tumor/non-tumor ratios
in vivo performance ([4]; 1 hour post injection): longer blood retention, better tumor/non-tumor ratios
uptake in malignant pancreas ([4]; 1 hour post injection): 5.9 % ID/g
specific tumor uptake ([4]; PET imaging): showed specific tumor uptake
tissue uptake at 1 h ([5]; uptake in blood): 0.23 %ID/g
tissue uptake at 1 h ([5]; uptake in kidney): 5 %ID/g
tissue uptake at 1 h ([5]; uptake in liver): 4.7 %ID/g
tissue uptake at 1 h ([5]; uptake in muscle): 0.38 %ID/g
tissue uptake at 1 h ([5]; uptake in spleen): 3.1 %ID/g
